The test system of the data set is Exo1 (exonuclease). Description: ITC. To be noted: ITC: 67 mM glycine-KOH, 6.7 mM MgCl2, 1 mM TCEP, 37 C (Methods: 100 uM aptamer into 10 uM Exo1; Results text: 10 uM into 1 uM). Cells: Dulbecco's PBS, 5 mM ….

The sequence “NATCTAACTGCNGCGCCGCCGGGAAAATACTGTACGGTTAGAT [GS01 (5' GalN-Sgc8)]” yielded a Kd (5'-terminal GalNAc-modified base (N1, printed X), position 12 is also printed X, but the text describes only 5' modification, so likely a misprint for T) of 662 µM. As for “ATCTAACTGCTGCGCCGCCGGGAAAATACTGTACGGTTAGA [Sgc8 (S01)]”, the Kd is 0.001 µM.

For orientation: Kd means the constant that tells how readily two partners part at equilibrium.

These data come from publication PMC11775523.
